Results: patent US20250289903A1 (PURINNOMIA BIOTECH, published 2025)

B1: PEO23, Human/Rabbit chimeric anti-human CD39 monoclonal antibody (antibody, V domains shown)
VH: QSVEESGGRLVTPGTPLTLTCTASGFSLSTHAINWVRQAPGKGLEWIGITYASGRTYYASWAKGRFTISKTSTTVDLKITSPTTEDTATYFCARNGADETFYYFDLWGPGTLVTVSS
VL: AYDMTQTPASVEAAVGGTVTIKCQASQNINTWLSWYQQKAGQPPKLLIYRASTLASGVSSRFKGSGSGTQFTLTISGVECADAATYYCQQYDASINIDNAFGGGTEVVVK
notes: also called clone PEO23
B2: PEO24, Human/Rabbit chimeric anti-human CD39 monoclonal antibody (antibody, V domains shown)
VH: QSVEESGGRLVTPGTPLTLTCTVSGIDLSSNAMSWVRQAPGKGLEYIGIIRNNDITYYASWAKGRFTISKTSTTVDLIITSPTTEDTATYFCARGGGSYSIVFWNLWGPGTLVTVSS
VL: AYDMTQTPASVEVAVGGTVTINCQASERIYSNLAWYQQKPGQRPKLLIYYASTLASGVSSRFKGSGSGTQFTLTISGVQCADAATYYCQQGYSNNNVDNTFGGGTEVVVR
notes: also called clone PEO24
B3: PEO18, Human/Rabbit chimeric anti-human CD39 monoclonal antibody (antibody, V domains shown)
VH: QSVKEAGGRLVTPGGSLTLTCTVSGFSLSAYGISWVRQAPGKGLEWIGIIYSSGRTYYANWAKGRFTISKTSSTTVDLKMTSLTTEDTAAYFCARSRAGISSGDGFDSWGPGTLVTVSS
VL: ALVMTQTPSSVSAAVGGTVTINCQASQNIYSNLAWYQQKPGQRPQLLIYRASTLASGVPSRFKGSASGTEYTLTISGVQCDDAATYYCQQGFDSSNIDNTFGGGTEVVVT
notes: also called clone PEO18
B4: PEO22, optimized afucosylated counterpart of PEOWT22 (antibody, human IgG1, kappa, V domains shown)
VH: EVQLVESGGGVVRPGGSLRLSCAASGFTFSSYAMHWVRQAPGKGLEWVAVISYDVSNKYYADSVKGRFTISRDNSKNTLYLQMNSLRAEDTAVYYCARSYYYYYGMDVWGQGTTVTVSS
VL: DVVMTQSPSSLSASVGDRVTITCRASQSISRYLAWYQQKPGQAPRLLIYDASNRATGIPVRFSGSGSGTDFTLTISRLEPEDFAVYYCQQFGRSPRTFGQGTRLEIKR
modifications: afucosylated (Fc glycan); no genetic modifications
B5: PEOWT22, fully human anti-CD39 monoclonal antibody (parent, fully fucosylated) (antibody, human IgG1, kappa, V domains shown)
VH: B4 VH
VL: B4 VL
B6: PEO20, Human/Rabbit chimeric anti-human CD39 monoclonal antibody (antibody, V domains shown)
VH: QSVEESGGRLVTPGTPLTLTCTVSGFSLSSYAISWVRQAPGKGLEYIAIINSYGTTYYASWAKGRVTISKTSSTVDLKISSPTTEDTATYFCARGDSYGSGVGLGLWGPGTLVTVSS
VL: AYDMTQTPASVEVAVGGTVTIKCQASQNIYSNLAWYQQKPGQRPKLLIYRASSLASGVPSRFSGSGSGTEFTLTISGVQCDDAATYYCQQGFSSNNVDNTFGGGTEVVVK
notes: also called clone PEO20
B7: PEO19, Human/Rabbit chimeric anti-human CD39 monoclonal antibody (antibody, V domains shown)
VH: QSVEESGGRLVTPGTHLTLTCTVSGFSLSKSIISWVRQAPGKGLEYIGIIGSSGSTYYANWAKGRFTISKTSSTTVDLRMTSLTPEDTATYFCARGLLYSGNKSWGPGTLVTVSS
VL: AIDMTQTPSSVSAAVGGTVTINCQSSQSVLLNNQLSWFQQKPGQPPKLLIYDASTLESGVPSRFTGSGSGTQFTLTISDLECDDAATYYCLGGYSGNLYAFGGGTEVLVK
notes: also called clone PEO19
B8: PEO21, Human/Rabbit chimeric anti-human CD39 monoclonal antibody (antibody, V domains shown)
VH: QSVEESGGRLVTPGTPLTLTCTVSGFSLSSYAMSWVRQAPGKGLEYIGIISSSGSTYYASWAKGRFTISKTSTTVDLKISSPTTEDTATYFCARDRVIYSIGPYYFNLWGPGTLVTVSS
VL: AYDMTQTPSSVSATVGGTVTINCQASEIIYSNLAWYQQKPGQPPKLLIYGASTLASGVPSRFKGSGSGTEYTLTISDLQCDDAATYYCQQSFSSNNVGNIFGGGTEVVVK
notes: also called clone PEO21
B9: PEONP22, afucosylated counterpart of PEOWT22 (antibody, human IgG1, kappa, V domains shown)
VH: B4 VH
VL: B4 VL
modifications: afucosylated (Fc glycan); no genetic modifications
notes: Produced by CHO cells stably transfected with the parental PEOWT22 plasmid

What follows are binders tested against T1, human CD39 (ectonucleoside triphosphate diphosphohydrolase-1) (human, UniProt P49961 1-510) (assay: flow cytometry epitope competition on HCC1739BL cells, competitor PE-Clone A1).
T1 construct: whole, on cells; also called hCD39; ENTPD1
T1 sequence (looked up): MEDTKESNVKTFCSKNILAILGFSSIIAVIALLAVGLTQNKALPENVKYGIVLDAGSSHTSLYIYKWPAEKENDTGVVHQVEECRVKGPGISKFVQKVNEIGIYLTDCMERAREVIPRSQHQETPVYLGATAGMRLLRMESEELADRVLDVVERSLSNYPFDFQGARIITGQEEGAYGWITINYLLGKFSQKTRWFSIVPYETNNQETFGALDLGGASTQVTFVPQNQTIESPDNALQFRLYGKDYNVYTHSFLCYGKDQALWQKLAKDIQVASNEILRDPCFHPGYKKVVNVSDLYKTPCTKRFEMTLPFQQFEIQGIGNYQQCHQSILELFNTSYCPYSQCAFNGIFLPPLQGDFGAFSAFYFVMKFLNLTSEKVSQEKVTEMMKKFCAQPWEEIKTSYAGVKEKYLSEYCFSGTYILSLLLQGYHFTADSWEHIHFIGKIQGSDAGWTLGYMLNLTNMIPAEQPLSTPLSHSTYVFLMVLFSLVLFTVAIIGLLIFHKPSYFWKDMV
Description: HCC1739BL cells were incubated with a panel of 18 anti-human CD39 monoclonal antibodies (Human/Rabbit chimeric clones; unconjugated, 2 μg/mL) at 4° C. for 30 minutes, followed by washing and staining with PE-conjugated mouse anti-human CD39 monoclonal antibody (Clone A1) for 30 minutes at 4° C. Cells were then analyzed by flow cytometry and PE median fluorescence intensity (MFI) was detected. Cells incubated with media instead of chimeric antibody were used as control.
Unconjugated anti-human CD39 monoclonal antibodies (Human/Rabbit chimeric clones; 2 μg/mL) were incubated with HCC1739BL cells (1×10⁵ cells) for 30 minutes at 4° C. Cells were then washed twice with cell staining buffer and stained with PE-conjugated mouse anti-human CD39 monoclonal antibody Clone A1 (0.25 μg/mL, Biolegend #328208) for 30 minutes at 4° C. Cells were then washed twice and analyzed by a Cytek™ Aurora flow cytometer. PE median fluorescence intensity (MFI) was detected, and data was analyzed by FCS […] Express 7 software (De Novo Software). Cells incubated with media instead of the chimeric antibody were used as control.

| binding result | Binder |
| --- | --- |
| binds | B1 |
| binds | B2 |
| binds | B3 |

The binders below were run against T1, human CD39 (ectonucleoside triphosphate …) (assay: cell-based or functional assay).

| Binder | EC50 of NK cytotoxicity toward human eosinophils (in-vitro ADCC assay, human NK effector cells) [ng/mL] |
| --- | --- |
| B4 | 0.294 |
| B5 | 3.03 |

The binders below were run against T1, human CD39 (ectonucleoside triphosphate …) (assay: stable immune complex assay, HCC1739BL cells, 2 µg/mL, anti-human IgG Fc AF488 MFI, 24 h 37°C vs 20 min 4°C).
Description: Exemplary anti-human CD39 antibodies presenting high, low and no ADCC activity (2 μg/mL) were incubated with HCC1739BL cells for 24 hours at 37° C. in 5% CO₂ or 20 minutes at 4° C., followed by secondary antibody staining (anti-human IgG (Fc specific), Alexa Fluor® 488) for 30 minutes at 4° C. Cells were then washed and analyzed by flow cytometry. The difference in AF488 MFI between 20 minutes and 24 hours treatment represents the loss of human CD39 on cell membrane that was calculated as described in Materials and Methods. […] Hu/Ra: Human/Rabbit chimeric antibody; hIgG1: humanized rabbit antibody, IgG1 isotype.
HCC1739BL cells (5×10⁵ cells/mL) were incubated with anti-human CD39 monoclonal antibodies (2 μg/mL) or left untreated for 24 hours at 37° C. in 5% CO₂. The following day, untreated cells were exposed to the same panel of monoclonal antibodies (2 μg/mL) but for 20 minutes at 4° C. to obtain the basal level of CD39 expression. Cells were then washed twice with cell staining buffer and stained with anti-human IgG (Fc specific) Alexa Fluor® 488 (1:2000) for 30 minutes at 4° C., followed by two additional washes and fixation with paraformaldehyde (PFA, 2%) for 10 minutes at room temperature. Lastly, cells were washed twice and analyzed by a Cytek™ Aurora flow cytometer (Cytek Biosciences). Alexa Fluor® 488 (AF488) MFI was detected, and data was analyzed by FCS Express 7 software (De Novo Software). The percentage of human CD39 loss on cell membrane at 24 hours was calculated as: [(20 min MFI-24 h MFI/20 min MFI)]X100.

| loss of human CD39 (immune complex) on cell membrane at 24 hours [%] | Binder |
| --- | --- |
| < 30 | B6 |
| < 30 | B7 |
| < 30 | B8 |
| < 30 | B9 |
